US20180208658A1 (EUREKA THERAPEUTICS, published 2018)

Columns and labels:
[1] = molecular target: T1, mouse AFP158 peptide/HLA-A*02:01 complex on T2 cells (human; mouse); test: FACS, phage clone on peptide-loaded T2 cells
T1 construct: also called mouse AFP158-loaded T2 cells

[2] = molecular target: T2, hTERT540 peptide (…)/HLA-A*02:01 on T2 cells (human); test: FACS of scFv phage on hTERT peptide-loaded T2 cells
T2 construct: control peptide-MHC; also called β2M/hTERT peptide-loaded T2 cells
Procedure: (§1) Specific and unique clones were further tested for their binding to HLA-A2/peptide complexes on live cell surfaces by flow cytometry (FACS analysis) using AFP158-loaded live T2 cells. T2 cells loaded with different peptides and β2M were first stained with purified scFv phage clones, followed by staining with a mouse anti-M13 mAb, and finally the R-PE conjugated horse anti-mouse IgG from Vector Labs. Each step of the staining was done between 30-60 minutes on ice and the cells were washed twice between staining.

[3] = molecular target: T3, HLA-A*02:01 on T2 cells with β2M but without peptide loaded (human); test: FACS of scFv phage on β2M-loaded T2 cells without peptide
T3 construct: control without added peptide; also called β2M-loaded T2 cells
Procedure: as §1

[4] = molecular target: T4, AFP158/HLA-A*02:01 complex presented on cells (human); test: FACS of scFv phage on AFP158 peptide-loaded T2 cells, anti-M13 mAb and R-PE anti-mouse IgG
T4 construct: the cell line used is named under assay in each row; also called AFP158-loaded T2 cells; human AFP158-loaded T2 cells
Procedure: as §1

[5] = molecular target: T1, mouse AFP158 peptide/HLA-A*02:01 …; test: FACS of scFv phage on mouse AFP158 peptide-loaded T2 cells
[6] = molecular target: T5, recombinant AFP protein (UniProt P02771 19-609, limits assumed); test: ELISA on AFP protein coated at 2 µg/mL
T5 construct: also called AFP recombinant protein
T5 sequence (looked up): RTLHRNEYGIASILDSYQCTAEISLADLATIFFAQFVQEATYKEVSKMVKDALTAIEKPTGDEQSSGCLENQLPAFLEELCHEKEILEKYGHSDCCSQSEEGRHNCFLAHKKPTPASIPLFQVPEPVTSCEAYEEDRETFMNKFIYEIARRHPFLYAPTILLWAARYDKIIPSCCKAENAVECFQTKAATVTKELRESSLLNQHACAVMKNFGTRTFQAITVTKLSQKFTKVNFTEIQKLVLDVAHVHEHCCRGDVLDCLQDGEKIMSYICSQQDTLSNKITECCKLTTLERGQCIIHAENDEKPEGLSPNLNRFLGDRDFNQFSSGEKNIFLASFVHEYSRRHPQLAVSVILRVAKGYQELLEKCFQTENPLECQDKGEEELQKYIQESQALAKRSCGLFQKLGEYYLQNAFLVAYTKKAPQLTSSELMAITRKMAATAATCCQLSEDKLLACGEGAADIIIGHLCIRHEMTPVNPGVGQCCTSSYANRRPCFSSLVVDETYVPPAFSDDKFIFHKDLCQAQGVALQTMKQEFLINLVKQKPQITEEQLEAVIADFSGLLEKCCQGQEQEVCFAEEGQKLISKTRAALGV
Procedure: Antibodies were tested at 3× serial dilution, starting from 100 ng/mL, for a total of 8 concentrations. Biotinlyated AFP158/A*02:01 MHC was coated onto streptavidin plates at 2 μg/mL, AFP protein was coated at 2 μg/mL and AFP158 peptide was coated at 40 ng/mL.

[7] = molecular target: T4, AFP158/HLA-A*02:01 complex presented on …; test: FACS, phage clone on peptide-loaded T2 cells
[8] = molecular target: T4, AFP158/HLA-A*02:01 complex presented on …; test: FACS, scFv phage clone on peptide-loaded T2 cells
Procedure: (§2) Antibody phage clones were then tested for binding to these peptide-loaded T2 cells by FACS analysis.

[9] = molecular target: T6, hAFP158 A1 peptide (…)/HLA-A*02:01 on T2 cells (human); test: FACS, scFv phage clone on peptide-loaded T2 cells
T6 construct: also called Ala Position 1
Procedure: as §2

[10] = molecular target: T7, hAFP158 A3 peptide (…)/HLA-A*02:01 on T2 cells (human); test: FACS, scFv phage clone on peptide-loaded T2 cells
T7 construct: also called Ala Position 3
Procedure: as §2

[11] = molecular target: T8, hAFP158 A4 peptide (…)/HLA-A*02:01 on T2 cells (human); test: FACS, scFv phage clone on peptide-loaded T2 cells
T8 construct: also called Ala Position 4
Procedure: as §2

[12] = molecular target: T9, hAFP158 A5 peptide (…)/HLA-A*02:01 on T2 cells (human); test: FACS, scFv phage clone on peptide-loaded T2 cells
T9 construct: also called Ala Position 5
Procedure: as §2

[13] = molecular target: T10, hAFP158 A6 peptide (…)/HLA-A*02:01 on T2 cells (human); test: FACS, scFv phage clone on peptide-loaded T2 cells
T10 construct: also called Ala Position 6
Procedure: as §2

[14] = molecular target: T11, hAFP158 A7 peptide (…)/HLA-A*02:01 on T2 cells (human); test: FACS, scFv phage clone on peptide-loaded T2 cells
T11 construct: also called Ala Position 7
Procedure: as §2

[15] = molecular target: T12, hAFP158 A8 peptide (…)/HLA-A*02:01 on T2 cells (human); test: FACS, scFv phage clone on peptide-loaded T2 cells
T12 construct: also called Ala Position 8
Procedure: as §2

B1: AFP158/HLA-A*02:01-specific scFv phage clone #33 (scFv, V domains shown)
VH: QVQLQQSGPGLVKPSQTLSLTCAISGDSVSSNSAAWNWIRQSPSRGLEWLGRTYYRSKWYNDYAVSVKSRITINPDTSKNQFSLQLNSVTPEDTAVYYCARGSYYSGRYDAWGQGTLVTVSS
VL: NFMLTQPHSVSESPGKTVTISCTRSSGSIASNYVQWYQQRPGSSPTTVIYEDNQRPSGVPDRFSGSIDSSSNSASLTISGLKTEDEADYYCQSYDSSTVVFGGGTKLTVLG
- binding result [1]: binds
- binding result [2]: no binding
- binding result [3]: no binding
- binding result [4]: binds

B2: #44 (scFv, V domains shown, not shown: large carriers; small tags and cut ends)
VH: QVQLVQSGAEVKKPGSSVKVSCKASGGTFSSYAISWVRQAPGQGLEWMGGIIPIFGTANYAQKFQGRVTITADESTSTAYMELSSLRSEDTAVYYCAREIRGYYYYYGMDVWGQGTTVTVSS
VL: SYELTQPPSVSVAPGKTARITCGGDNIGTKSVTWYQQRPGQAPMMVIYYDTVRPSGIPERLSGSNSGNTATLTITRVEAGDEADYYCQVWDSSSDHPVFGGGTKLTVL
notes: also called Clone 44; AFP158/HLA-A*02:01-specific scFv phage clone #44; copies: 1 + 1
- binding result [2]: no binding
- binding result [3]: no binding
- binding result [5]: no binding
- binding result [4]: binds

B3: AFP158/HLA-A*02:01-specific scFv phage clone #48 (scFv, V domains shown)
VH: EVQLVESGGGLVQPGRSLRLSCAASGFTFDDYAMHWVRQAPGKGLEWVSGISWNSGRIGYADSVKGRFTISRDNAKNSLYLQMNSLRAEDTAVYYCARADDYGAPYYYYGMDVWGQGTTVTVSS
VL: QSVLTQPPSVSGAPGQRVTISCTGSSSNIGAGYDVHWYQQLPGTAPKLLIYGNSNRPSGVPDRFSGSKSGTSASLAITGLQAEDEADYYCQSYDSSLSGSVFGTGTKVTVLG
- binding result [1]: binds
- binding result [2]: no binding
- binding result [3]: no binding
- binding result [4]: binds

B4: #50 (scFv, V domains shown, not shown: large carriers; small tags and cut ends)
VH: QVQLQESGPGLVKPSGTLSLTCAVSGGSISSSNWWSWVRQPPGKGLEWIGEIYHSGSTNYNPSLKSRVTISVDKSKNQFSLKLSSVTAADTAVYYCATGYGGYFDYWGQGTLVTVSS
VL: QSVLTQPPSVSVAPGKTARITCGGNNIGSKSVHWYQQKPGQAPVLVIYYDSDRPSGIPERFSGSNSGNTATLTISRVEAGDEADYYCQVWDSSSDHVVFGGGTKLTVL
notes: also called Clone 50; AFP158/HLA-A*02:01-specific scFv phage clone #50; copies: 1 + 1
- binding result [2]: no binding
- binding result [3]: no binding
- binding result [4]: binds

B5: full-length AFP158 mouse chimeric IgG1 antibody 1402-61 (antibody, V domains shown)
VH: EVQLVQSGAEVKKPGESLTISCKASGYSFPNYWITWVRQMSGGGLEWMGRIDPGDSYTTYNPSFQGHVTISIDKSTNTAYLHWNSLKASDTAMYYCARYYVSLVDIWGQGTLVTVSS
VL: QSVLTQPASVSGSPGQSITISCTGTSSDVGGYNYVSWYQQHPGKAPKLMIYDVNNRPSEVSNRFSGSKSGNTASLTISGLQAEDEADYYCSSYTTGSRAVFGGGTKLTVLG
notes: bivalent IgG
- binding result [6]: no binding (tested: 100 ng/mL)

B6: full-length AFP158 mouse chimeric IgG1 antibody 1402-76 (antibody, V domains shown)
VH: EVQLVESGGGLVKPGGSLRLSCAASGFTFSNAWMSWVRQAPGKGLEWVGFIRSKAYGGTTEYAASVKGRFTISRDDSKSIAYLQMNNLKTEDTAVYYCARDGLYSSSWYDSDYWGQGTLVTVSS
VL: QSVVTQPPSVSAAPGQKVTISCSGSSSNIGNNYVSWYQQLPGTAPKLLIYDNNKRPSGIPDRFSGSKSGTSATLGITGLQTGDEADYYCGTWDGSLYTMLFGGGTKLTVLG
notes: bivalent IgG
- binding result [6]: no binding (tested: 100 ng/mL)

B7: full-length AFP158 mouse chimeric IgG1 antibody 1402-79 (antibody, V domains shown)
VH: QMQLVQSGGGLVQPGRSLRLSCAASGFTFDDYAMHWVRQAPGKGLEWVSGISWNSGSIGYADSVKGRFTISRDNAKNSLYLQMNSLRAEDTALYYCAKDIHSGSYYGLLYYAMDVWGQGTTVTVSS
VL: QSVLTQPPSVSGAPGQRVTISCTGSSSNIGAGYDVHWYQQLPGTAPKLLIFGNSNRPSGVPDRFSGFKSGTSASLAITGLQAEDEADYFCQSYDSSLSGSGVFGTGTKVTVLG
notes: bivalent IgG
- binding result [6]: no binding (tested: 100 ng/mL)

B8: AFP158/HLA-A*02:01-specific scFv phage clone #17 (scFv, V domains shown)
VH: EVQLVQSGAEVKKPGASVKVSCKASGYTFTSYGISWVRQAPGQGLEWMGWISAYNGNTNYAQKLQGRVTMTTDTSTSTAYMELRSLRSDDTAVYYCARYQDWWYLGQFDQWGQGTLVTVSS
VL: QSALTQPASVSGSPGQSITISCTATGSDVGVYYYVSWYQQHPGKAPKVMIYDVGNRPPGVSNRFSGSKSGNTASLTISGLQAEDEADYYCASYTNRNSLGYVFGTGTKVTVLG
- binding result [7]: binds
- binding result [1]: binds

B9: AFP158/HLA-A*02:01-specific scFv phage clone #17-13 (scFv, V domains shown)
VH: EVQLVQSGAEVKKPGASVKVSCKASGYTFTSYGISWVRQAPGQGLEWMGWISAYNGNTNYAQKLQGRVTMTTDTSTSTAYMELRSLRSDDTAVYYCARFQDWWYLGQFDQWGQGTLVTVSS
VL: QSALTQPASVSGSPGQSITISCTATGSDVGVYYYVSWYQQHPGKAPKVMIYDVDNRPPGVSNRFSGSKSGNTASLTISGLQAEDEADYYCASYTNRNSLGYVFGTGTKVTVLG
notes: also called AM1402-17-13
- FACS binding signal (name and unit not given) [8]: 83300
- FACS binding signal (name and unit not given) [9]: 55600
- FACS binding signal (name and unit not given) [10]: 2910
- FACS binding signal (name and unit not given) [11]: 50800
- FACS binding signal (name and unit not given) [12]: 1500
- FACS binding signal (name and unit not given) [13]: 28800
- FACS binding signal (name and unit not given) [14]: 572
- FACS binding signal (name and unit not given) [15]: 43200
